Values quoted from earlier work in US20010007853A1, “METHOD FOR ADMINISTERING MONOMERIC INSULIN ANALOGS” (priority 1998, published 2001).

Conditions: calculated

Substance	Absorption values for proteins delivered through the lungs
parathyroid hormone (fragment 1-34)	fifteen
glycosylated α1-antitrypsin	48 h
